Data: IntAct's records for PubMed 31515488

B1: F-box/WD repeat-containing protein 1A (Homo sapiens), Q9Y297 (parent)
chain: MDPAEAVLQEKALKFMCSMPRSLWLGCSSLADSMPSLRCLYNPGTGALTAFQNSSEREDCNNGEPPRKIIPEKNSLRQTYNSCARLCLNQETVCLASTAMKTENCVAKTKLANGTSSMIVPKQRKLSASYEKEKELCVKYFEQWSESDQVEFVEHLISQMCHYQHGHINSYLKPMLQRDFITALPARGLDHIAENILSYLDAKSLCAAELVCKEWYRVTSDGMLWKKLIERMVRTDSLWRGLAERRGWGQYLFKNKPPDGNAPPNSFYRALYPKIIQDIETIESNWRCGRHSLQRIHCRSETSKGVYCLQYDDQKIVSGLRDNTIKIWDKNTLECKRILTGHTGSVLCLQYDERVIITGSSDSTVRVWDVNTGEMLNTLIHHCEAVLHLRFNNGMMVTCSKDRSIAVWDMASPTDITLRRVLVGHRAAVNVVDFDDKYIVSASGDRTIKVWNTSTCEFVRTLNGHKRGIACLQYRDRLVVSGSSDNTIRLWDIECGACLRVLEGHEELVRCIRFDNKRIVSGAYDGKIKVWDLVAALDPRAPAGTLCLRTLVEHSGRVFRLQFDEFQIVSSSHDDTILIWDFLNDPAAQAEPPRSPSRTYTYISR
B2: Protein ZNRD2 (Homo sapiens), O60232 (parent)
chain: MALNGAEVDDFSWEPPTEAETKVLQARRERQDRISRLMGDYLLRGYRMLGETCADCGTILLQDKQRKIYCVACQELDSDVDKDNPALNAQAALSQAREHQLASASELPLGSRPAPQPPVPRPEHCEGAAAGLKAAQGPPAPAVPPNTDVMACTQTALLQKLTWASAELGSSTSLETSIQLCGLIRACAEALRSLQQLQH
partner: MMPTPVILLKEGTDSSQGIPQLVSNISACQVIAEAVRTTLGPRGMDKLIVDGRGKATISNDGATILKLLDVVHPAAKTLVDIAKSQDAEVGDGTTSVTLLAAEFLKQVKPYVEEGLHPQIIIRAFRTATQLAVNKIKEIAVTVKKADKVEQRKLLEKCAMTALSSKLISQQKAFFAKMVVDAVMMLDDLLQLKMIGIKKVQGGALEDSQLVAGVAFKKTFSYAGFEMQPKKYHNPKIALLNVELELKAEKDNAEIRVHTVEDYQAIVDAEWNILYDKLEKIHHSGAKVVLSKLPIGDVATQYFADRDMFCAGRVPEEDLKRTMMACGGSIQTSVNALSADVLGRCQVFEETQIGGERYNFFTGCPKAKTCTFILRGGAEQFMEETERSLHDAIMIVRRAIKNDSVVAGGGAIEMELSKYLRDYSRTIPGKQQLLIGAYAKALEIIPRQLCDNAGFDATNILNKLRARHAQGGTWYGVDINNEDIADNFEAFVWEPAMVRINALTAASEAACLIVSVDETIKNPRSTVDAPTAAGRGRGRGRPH
B3: Amyloid beta A4 precursor protein-binding family B member 1-interacting protein (Homo sapiens), Q7Z5R6-2 (parent)
chain: MGESSEDIDQMFSTLLGEMDLLTQSLGVDTLPPPDPNPPRAEFNYSVGFKDLNESLNALEDQDLDALMADLVADISEAEQRTIQAQKESLQNQHHSASLQASIFSGAASLGYGTNVAATGISQYEDDLPPPPADPVLDLPLPPPPPEPLSQVSMWDQRWQDHQPLLPITDVP
B4: Isoform 6 of F-box only protein 11 (Homo sapiens), Q86XK2-6 (parent)
chain: MVAEESGPGAQNSPYQLRRKTLLPKRTACPTKNSMEGASTSTTENFGHRAKRARVSGKSQDLSAAPAEQYLQEKLPDEVVLKIFSYLLEQDLCRAACVCKRFSELANDPILWKRLYMEVFEYTRPMMHPEPGKFYQINPEEYEHPNPWKESFQQLYKGAHVKPGFAEHFYSNPARYKGRENMLYYDTIEDALGGVQEAHFDGLIFVHSGIYTDEWIYIESPITMIGAAPGKVADKVIIENTRDSTFVFMEGSEDAYVGYMTIRFNPDDKSAQHHNAHHCLEITVNCSPIIDHCIIRSTCTVGSAVCVSGQGACPTIKHCNISDCENVGLYITDHAQGIYEDNEISNNALAGIWVKNHGNPIIRRNHIHHGRDVGVFTFDHGMGYFESCNIHRNRIAGFEVKAYANPTVVRCEIHHGQTGGIYVHEKGRGQFIENKIYANNFAGVWITSNSDPTIRGNSIFNGNQGGVYIFGDGRGLIEGNDIYGNALAGIQIRTNSCPIVRHNKIHDGQHGGIYVHEKGQGVIEENEVYSNTLAGVWVTTGSTPVLRRNRIHSGKQVGVYFYDNGHGVLEDNDIYNHMYSGVQIRTGSNPKIRRNKIWGGQNGGILVYNSGLGCIEDNEIFDNAMAGVWIKTDSNPTLRRNKIHDGRDGGICIFNGGRGLLEENDIFRNAQAGVLISTNSHPILRKNRIFDGFAAGIEITNHATATLEGNQIFNNRFGGLFLASGVNVTMKDNKIMNNQDAIEKAVSRGQCLYKISSYTSYPMHDFYRCHTCNTTDRNAICVNCIKKCHQGHDVEFIRHDRFFCDCGAGTLSNPCTLAGEPTHDTDTLYDSAPPIESNTLQHN
B5: Isoform 1 of Ras-related protein Rab-5C (Homo sapiens), P51148-1 (parent)
chain: MAGRGGAARPNGPAAGNKICQFKLVLLGESAVGKSSLVLRFVKGQFHEYQESTIGAAFLTQTVCLDDTTVKFEIWDTAGQERYHSLAPMYYRGAQAAIVVYDITNTDTFARAKNWVKELQRQASPNIVIALAGNKADLASKRAVEFQEAQAYADDNSLLFMETSAKTAMNVNEIFMAIAKKLPKNEPQNATGAPGRNRGVDLQENNPASRSQCCSN
partner: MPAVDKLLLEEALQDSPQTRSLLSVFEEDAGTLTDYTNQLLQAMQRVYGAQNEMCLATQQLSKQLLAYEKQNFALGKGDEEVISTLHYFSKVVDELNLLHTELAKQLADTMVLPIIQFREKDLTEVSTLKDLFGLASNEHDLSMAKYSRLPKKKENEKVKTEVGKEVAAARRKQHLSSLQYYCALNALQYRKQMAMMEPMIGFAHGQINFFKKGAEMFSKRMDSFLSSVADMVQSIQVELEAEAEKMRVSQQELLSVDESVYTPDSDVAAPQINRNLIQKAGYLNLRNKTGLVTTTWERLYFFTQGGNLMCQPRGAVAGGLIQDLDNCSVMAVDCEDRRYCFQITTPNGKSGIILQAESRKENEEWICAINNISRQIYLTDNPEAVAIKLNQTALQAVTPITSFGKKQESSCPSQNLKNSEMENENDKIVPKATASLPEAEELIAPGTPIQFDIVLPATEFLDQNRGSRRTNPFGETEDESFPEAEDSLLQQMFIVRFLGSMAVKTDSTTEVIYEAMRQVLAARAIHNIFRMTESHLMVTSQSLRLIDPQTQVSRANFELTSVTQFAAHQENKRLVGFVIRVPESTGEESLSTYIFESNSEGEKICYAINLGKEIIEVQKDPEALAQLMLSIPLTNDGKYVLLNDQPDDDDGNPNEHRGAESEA

Variants of: B1
Settings: with tacc1_human TACC1, O75410
Chain of tacc1_human TACC1, O75410 (O75410 whole entry): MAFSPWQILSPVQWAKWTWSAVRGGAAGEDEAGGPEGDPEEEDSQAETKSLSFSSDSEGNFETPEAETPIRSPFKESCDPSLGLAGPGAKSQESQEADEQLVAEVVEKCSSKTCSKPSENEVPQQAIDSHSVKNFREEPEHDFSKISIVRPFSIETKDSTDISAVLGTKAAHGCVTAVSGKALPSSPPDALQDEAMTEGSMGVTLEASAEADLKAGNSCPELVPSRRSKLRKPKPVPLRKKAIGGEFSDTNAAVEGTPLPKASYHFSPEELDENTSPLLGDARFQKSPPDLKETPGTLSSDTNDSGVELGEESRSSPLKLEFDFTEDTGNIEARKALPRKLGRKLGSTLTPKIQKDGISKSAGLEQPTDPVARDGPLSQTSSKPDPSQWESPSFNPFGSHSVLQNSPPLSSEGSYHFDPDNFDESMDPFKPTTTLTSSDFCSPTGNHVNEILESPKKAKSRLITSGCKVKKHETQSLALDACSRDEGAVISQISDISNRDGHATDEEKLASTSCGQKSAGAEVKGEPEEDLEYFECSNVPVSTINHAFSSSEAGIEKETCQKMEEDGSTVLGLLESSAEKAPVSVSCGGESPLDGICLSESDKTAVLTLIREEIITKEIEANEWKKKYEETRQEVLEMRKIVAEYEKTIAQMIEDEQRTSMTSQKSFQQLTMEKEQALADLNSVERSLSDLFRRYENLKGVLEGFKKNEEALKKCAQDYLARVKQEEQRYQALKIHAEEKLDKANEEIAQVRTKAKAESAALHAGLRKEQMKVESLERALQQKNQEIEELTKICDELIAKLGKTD

effect of a mutation on the interaction	Variant
disrupting interaction strength	T414A
with no effect	P592H
with no effect	R594H
disrupting interaction strength	I439V
with no effect	L8M

Variants of: B2
Settings: with tcph_human CCT7, Q99832

effect of a mutation on the interaction	Variant
with no effect	MALNGAEVDDFSWEPPTEAEMKVLQARRERQDRISRLMGDYLLRGYRMLGETCADCGTILLQDKQRKIYCVACQELDSDVDKDNPALNAQAALSQAREHQLASASELPLGSRPAPQPPVPRPEHCEGAAAGLKAAQGPPAPAVPPNTDVMACTQTALLQKLTWASAELGSSTSLETSIQLCGLIRACAEALRSLQQLQH

Variants of: B3
Settings: with dpy30_human DPY30, Q9C005
Chain of dpy30_human DPY30, Q9C005 (Q9C005 whole entry): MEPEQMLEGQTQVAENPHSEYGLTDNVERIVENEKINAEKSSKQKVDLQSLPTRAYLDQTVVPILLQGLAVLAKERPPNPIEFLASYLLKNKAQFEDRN

effect of a mutation on the interaction	Variant
with no effect	MGESSEDIDQMFSTLLGEMDLLTQSLGVDTLPPPDPNPPRAEFNYSVGFKDLNESLNALEDQDLDALMADLVADISEAEQRTIQAQKESLQNQHHSASLQASIFSGAASLGYGTNVAATGISQYEDDLPPPPANPVLDLPLPPPPPEPLSQVSMWDQRWQDHQPLLPITDVP

Variants of: B4
Settings: with skp1_human SKP1, P63208
Chain of skp1_human SKP1, P63208 (P63208 whole entry): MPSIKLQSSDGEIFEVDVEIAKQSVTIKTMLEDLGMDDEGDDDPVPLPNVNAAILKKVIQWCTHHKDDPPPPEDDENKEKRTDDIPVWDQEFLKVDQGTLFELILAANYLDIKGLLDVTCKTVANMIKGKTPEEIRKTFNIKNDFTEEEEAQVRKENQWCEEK

effect of a mutation on the interaction	Variant
with no effect	T532S
with no effect	D507N
with no effect	A703T

Variants of: B5
Settings: with dp13b_human APPL2, Q8NEU8

effect of a mutation on the interaction	Variant
with no effect	MAGRGGAARPNGPAAGNKICQFKLVLLGESAVGKSSLVLRFVKGQFHEYQESTIGAAFLTQTVCLDDTTVKFEIWDTAGQERYHSLAPMYYRRAQAAIVVYDITNTDTFARAKNWVKELQRQASPNIVIALAGNKADLASKRAVEFQEAQAYADDNSLLFMETSAKTAMNVNEIFMAIAKKLPKNEPQNATGAPGRNRGVDLQENNPASRSQCCSN [G93R]

Variants of: B5
Settings: with dp13b_human APPL2, Q8NEU8
Remark: another data set of the same source

effect of a mutation on the interaction	Variant
with no effect	MAGRGGAARPNGPAAGNKICQFKLVLLGESAVGKSSLVLRFVKGQFHEYQESTIGAAFLTQTVCLDDTTVKFEIWDTAGQERYHSLAPMYYRGAQAAIVVYDITNTDTFARAKNWVKELQRQASPNIVIALAGNKADLASKRAVEFQEAQAYADDNSLLFMETSAKTAMNVNEIFMAIAKKLPKNEPQNATGAPGQNRGVDLQENNPASRSQCCSN [R196Q]
with no effect	MAGRGGAARPNGPAAGNKICQFKLVLLGESAVGKSSLVLRFVKGQFHEYQESTIGAAFLTQTVCLDDTTVKFEIWDTAGQERYHSLAPMYYRGAQAAIVVYDITNTDTFARAKNWVKELQRQASPNIVIALAGNKADLASKRAVEFQEAQAYADDNSLLFMETSAKTAMNVNEIFMAIAKKLPKNEPQNATGAPGRNRGVDLQENSPASRSQCCSN [N206S]
